This is an account of results in paper doi:10.1101/2022.11.08.515567.

Holding throughout (assay): SEC
For assay [1], the target named is S2P.OmiBA1-FHA (SARS CoV-2 (Omicron BA.1) | bacteriophage T4).
Assay [2] concerns the target S2P-1208.H8 (ancestral Hu-1) (SARS CoV-2 (ancestral Hu-1 isolate)) (UniProt P0DTC2).
Assay [3] concerns the target S2P.OmiBA1-1208.H8 (SARS CoV-2 (Omicron BA.1)).
Assay [4] concerns the target S2P.OmiBA.4/5-1208.H8 (SARS CoV-2 (Omicron BA.4/5)).

S2P.OmiBA1-FHA (domain or fragment) displayed a stoichiometry N in assay [1] of 3.

On to “S2P-1208.H8 (ancestral Hu-1) (from UniProt P0DTC2 16-1208) (domain or fragment)”, for which, in assay [2], the stoichiometry N amounted to 2.

Consider S2P.OmiBA1-1208.H8 (domain or fragment), for which, in assay [3], the percent dissociated to dimer after a freeze-thaw cycle came out at 15% and the stoichiometry N was 3.

“S2P.OmiBA.4/5-1208.H8 (domain or fragment)” showed a stoichiometry N in assay [4] of 3.
